Reference: patent US6794159

B1: Aeromonas aminopeptidase (protein)
chain: MPPITQQATVTAWLPQVDASQITGTISSLESFTNRFYTTTSGAQASDWIASEWQALSASLPNASVKQVSHSGYNQKSVVMTITGSEAPDEWIVIGGHLDSTIGSHTNEQSVAPGADDDASGIAAVTEVIRVLSENNFQPKRSIAFMAYAAEEVGLRGSQDLANQYKSEGKNVVSALQLDMTNYKGSAQDVVFITDYTDSNFTQYLTQLMDEYLPSLTYGFDTCGYACSDHASWHNAGYPAAMPFESKFNDYNPRIHTTQDTLANSDPTGSHAKKFTQLGLAYAIEMGSATGDTPTPGNQ
B2: Cu2+-substituted Aeromonas aminopeptidase (protein)
chain: B1 chain

Biological target: Alanyl-human growth hormone

Protein | % cleavage (batch mode, 4-6° C., 16 hrs) [%] | % cleavage (batch mode, 4-6° C., 54 hrs) [%] | % cleavage (batch mode, 4-6° C., 89 hrs) [%] | % cleavage (batch mode, ambient, 16 hrs) [%] | % cleavage (batch mode, ambient, 54 hrs) [%] | % cleavage (batch mode, ambient, 89 hrs) [%] | % cleavage (recirculation, 28° C., 2.92 hrs, 1.06 passes, RP-HPLC) [%] | % cleavage (recirculation, 28° C., 5.73 hrs, 2.08 passes, tryptic map) [%] | % cleavage (recirculation, 28° C., 15.57 hrs, 5.66 passes, tryptic map) [%] | % cleavage (recirculation, 28° C., 17.73 hrs, 6.45 passes, tryptic map) [%] | % cleavage (recirculation, 28° C., 20.4 hrs, 7.42 passes, tryptic map) [%] | % cleavage (recirculation, 28° C., 23.4 hrs, 8.8 passes, tryptic map) [%] | % cleavage (recirculation, 28° C., 24.4 hrs, 8.87 passes, tryptic map) [%] | % cleavage (recirculation, 28° C., 39.7 hrs, 14.44 passes, tryptic map) [%] | removal of Ala from Ala-hGH by AAP in free solution (Ala-hGH 3 mg/ml; AAP 2.0, 3.0, 4.0 units/ml; room temperature; ES/MS) | rate of Ala-hGH cleavage, batch and recirculating column modes, compared with Zn-AAP (RP-HPLC)
B1 | 48 | 65 | 75 | 82 | > 97 | > 97 | > 93 | > 96.1 | > 98.6 | > 98.6 | > 98.6 | > 98.8 | > 98.8 | > 99.2 | Most of the reactions for the three highest concentrations of AAP were complete by 6 hours | –
B2 | – | – | – | – | – | – | – | – | – | – | – | – | – | – | – | Cu^2+-substituted AAP was the most active against Ala-hGH
